Assay results: patent US20040018971A1 (published 2004)

How the values were obtained:
[1] = biological target: HLA-B*0702 (human); experiment: competition vs 125I-labeled standard peptide, purified HLA
[2] = biological target: HLA-B*5301 (human); experiment: as above
[3] = biological target: HLA-B*5401 (human); experiment: as above
[4] = biological target: HLA-B*5101 (human); experiment: as above
[5] = biological target: HLA-B*3501 (human); experiment: as above
[6] = biological target: HLA-A*1101 (human); experiment: inhibition of 125I-labelled probe peptide binding to purified HLA-A*1101, gel filtration; relative to standard peptide 940.06
[7] = biological target: HLA-A*1101 (human); experiment: competitive inhibition of 125I-labeled probe peptide binding to purified HLA-A*1101, gel filtration
[8] = biological target: HLA-A*3101 (human); experiment: inhibition of 125I probe peptide binding to purified HLA
[9] = biological target: HLA-A*0301 (human); experiment: as above
[10] = biological target: HLA-A*6801 (human); experiment: as above
[11] = biological target: T1, HLA-A*0301 (human); experiment: inhibition of 125I-labelled probe peptide binding to purified HLA-A*0301, gel filtration; ratio to standard peptide 941.12 ([..], 11 nM)
T1 construct: also called HLA-A3

B1: Her2/neu.649.F1, 10-mer (peptide)
peptide: FPLTSIISAV
notes: 10-mer analog of the HER2/neu peptide starting at position 649; same label as the 9-mer in r40
Q: For B1, which IC50 [1] is on record?
A: 220 nM

Q: What about the IC50 [2] of the same binder?
A: 2910 nM

Q: And the IC50 [3]?
A: 1.2 nM

Q: What about the IC50 [4] of the same binder?
A: 63 nM

Q: And the IC50 [5]?
A: 300 nM

B2: Her2/neu.649.F1I10 (peptide)
peptide: FPLTSIISAI
notes: 10-mer analog of the HER2/neu peptide starting at position 649
Q: B2 was tested. Which IC50 [1] did it give?
A: 229 nM

Q: What about the IC50 [2] of the same binder?
A: 194 nM

Q: And the IC50 [3]?
A: 3.3 nM

Q: What about the IC50 [4] of the same binder?
A: 26 nM

Q: What about the IC50 [5] of the same binder?
A: 327 nM

Q: QALLHTANR (also called HER2/neu 491-499) [HER2/neu A11 motif peptide, position 491, 9 amino acids] was tested. Which relative binding ratio [6] did it give?
A: 0.001 ratio (IC50 of standard peptide / IC50 of test peptide)

B3: Her2/neu.649.F1I11 (peptide)
peptide: FPLTSIISAVI
notes: 11-mer analog of the HER2/neu peptide starting at position 649
Q: Which results are given for B3?
A: IC50 [2]: 66 nM; IC50 [3]: 2.2 nM; IC50 [4]: 4.6 nM; IC50 [5]: 96 nM

Q: For DLAARNVLVK [HER2/neu peptide, position 845, 10 amino acids], which relative binding ratio [7] is on record?
A: 0.0007 ratio (IC50 of standard peptide / IC50 of test peptide)

Q: For CAGGCARCK [HER2/neu peptide, position 220, 9 amino acids], which relative binding ratio [7] is on record?
A: -0.0002 ratio (IC50 of standard peptide / IC50 of test peptide)

Q: How did the relative binding ratio [7] turn out when CVTACPYNY [HER2/neu peptide, position 295, 9 amino acids] was run?
A: 0.0004 ratio (IC50 of standard peptide / IC50 of test peptide)

Q: How did the relative binding ratio [7] turn out when CSPMCKGSR [HER2/neu peptide, position 195, 9 amino acids] was run?
A: -0.0001 ratio (IC50 of standard peptide / IC50 of test peptide)

Q: Which relative binding ratio [6] does the source give for LTLIDTNRSR (also called HER2/neu 181-190) [HER2/neu A11 motif peptide, position 181, 10 amino acids] here?
A: 0.0005 ratio (IC50 of standard peptide / IC50 of test peptide)

B4: Her2/neu.706.F1, 9-mer (peptide)
peptide: FPNQAQMRI
notes: 9-mer analog of the HER2/neu peptide starting at position 706; same label as the 10-mer in r51
Q: Which results are given for B4?
A: IC50 [1]: 68 nM; IC50 [2]: 18 nM; IC50 [3]: 4.5 nM; IC50 [5]: 108 nM

B5: Her2/neu.760.F1, 9-mer (peptide)
peptide: FPKANKEIL
notes: 9-mer analog of the HER2/neu peptide starting at position 760; same label as the 8-mer in r52
Q: Which results are given for B5?
A: IC50 [1]: 6.7 nM; IC50 [3]: 77 nM; IC50 [4]: 190 nM; IC50 [5]: 4500 nM

Q: CTGTDMKLR [HER2/neu peptide, position 26, 9 amino acids] was tested. Which relative binding ratio [7] did it give?
A: 0.0005 ratio (IC50 of standard peptide / IC50 of test peptide)

Q: For QVRQVPLQR (also called HER2/neu 90-98) [HER2/neu A11 motif peptide, position 90, 9 amino acids], which relative binding ratio [6] is on record?
A: 0.0005 ratio (IC50 of standard peptide / IC50 of test peptide)

Q: NIQEFAGCKK (also called HER2/neu 360-369) [HER2/neu A11 motif peptide, position 360, 10 amino acids] was tested. Which relative binding ratio [6] did it give?
A: 0.0056 ratio (IC50 of standard peptide / IC50 of test peptide)

Q: With NIQEFAGCK [HER2/neu A11 motif peptide, position 360, 9 amino acids] as the binder, how does the relative binding ratio [6] read?
A: 0.0036 ratio (IC50 of standard peptide / IC50 of test peptide)

B6: Her2/neu.669 (AA 9) (peptide)
peptide: VVFGILIKR
notes: synthetic peptide; the 9-mer and the 10-mer carry the same source label Her2/neu.669
Q: With B6 as the binder, how does the IC50 [8] read?
A: 13 nM

Q: What about the IC50 [9] of the same binder?
A: 100 nM

Q: And the IC50 [10]?
A: 4 nM

B7: Her2/neu.706.F1, 10-mer (peptide)
peptide: FPNQAQMRIL
notes: 10-mer analog of the HER2/neu peptide starting at position 706; same label as the 9-mer in r49
Q: How did the IC50 [1] turn out when B7 was run?
A: 81 nM

Q: And the IC50 [2]?
A: 443 nM

Q: And the IC50 [3]?
A: 31 nM

Q: And the IC50 [4]?
A: 458 nM

Q: And the IC50 [5]?
A: 200 nM

Q: Which relative binding ratio [6] does the source give for PLPSETDGY (also called HER2/neu 1119-1127) [HER2/neu A11 motif peptide, position 1119, 9 amino acids] here?
A: 0.0002 ratio (IC50 of standard peptide / IC50 of test peptide)

B8: Her2/neu.706.I11 (peptide)
peptide: MPNQAQMRILI
notes: 11-mer analog of the HER2/neu peptide starting at position 706
Q: With B8 as the binder, how does the IC50 [1] read?
A: 344 nM

Q: What about the IC50 [2] of the same binder?
A: 12 nM

Q: And the IC50 [3]?
A: 303 nM

Q: What about the IC50 [4] of the same binder?
A: 37 nM

Q: What about the IC50 [5] of the same binder?
A: 1800 nM

B9: Her2/neu.801.I11 (peptide)
peptide: MPYGCLLDHVI
notes: 11-mer analog of the HER2/neu peptide starting at position 801
Q: For B9, which IC50 [1] is on record?
A: 66 nM

Q: And the IC50 [2]?
A: 1.9 nM

Q: What about the IC50 [3] of the same binder?
A: 7.7 nM

Q: And the IC50 [4]?
A: 2.4 nM

Q: And the IC50 [5]?
A: 4.2 nM

Q: How did the relative binding ratio [6] turn out when MGDLVDAEEY (also called HER2/neu 1014-1023) [HER2/neu A11 motif peptide, position 1014, 10 amino acids] was run?
A: 0.0002 ratio (IC50 of standard peptide / IC50 of test peptide)

Q: DSECRPRFR [HER2/neu peptide, position 962, 9 amino acids] was tested. Which relative binding ratio [7] did it give?
A: -0.0002 ratio (IC50 of standard peptide / IC50 of test peptide)

Q: With PLQRLRIVR [HER2/neu A11 motif peptide, position 95, 9 amino acids] as the binder, how does the relative binding ratio [6] read?
A: 0.0001 ratio (IC50 of standard peptide / IC50 of test peptide)

Q: Which “relative binding ratio (IC50 of standard peptide / IC50 of test peptide)” value [11] does the source give for FSPAFDNLY [HER2/neu peptide, position 1213, 9 amino acids] here?
A: 0.0002

Q: PAGATLERPK (also called HER2/neu 1162-1171) [HER2/neu A11 motif peptide, position 1162, 10 amino acids] was tested. Which relative binding ratio [6] did it give?
A: -0.0002 ratio (IC50 of standard peptide / IC50 of test peptide)

Q: With MALESILRRR (also called HER2/neu 889-898) [HER2/neu A11 motif peptide, position 889, 10 amino acids] as the binder, how does the relative binding ratio [6] read?
A: 0.0003 ratio (IC50 of standard peptide / IC50 of test peptide)

B10: Her2/neu.779.F1, 8-mer (peptide)
peptide: FPYVSRLL
notes: 8-mer analog of the HER2/neu peptide starting at position 779; same label as the 10-mer in r56
Q: How did the IC50 [1] turn out when B10 was run?
A: 61 nM

Q: And the IC50 [2]?
A: 581 nM

Q: And the IC50 [3]?
A: 172 nM

Q: What about the IC50 [4] of the same binder?
A: 6.9 nM

Q: What about the IC50 [5] of the same binder?
A: 600 nM
